# Test results as given in publication PMC9482650, “Quantitative fragmentomics allow affinity mapping of interactomes” (Nature Communications, 2022).
# Molecular target: SCRIB_1, Q14160
# Assay: holdup assay
# Design: key: below the threshold = too weak to quantify, mostly under pKd 3.1 to 4
# Conditions: plain residues with an end cap or a label only (N-terminal biotin on a linker: ado-ado)
# Chain of SCRIB_1, Q14160 (Q14160 718-814): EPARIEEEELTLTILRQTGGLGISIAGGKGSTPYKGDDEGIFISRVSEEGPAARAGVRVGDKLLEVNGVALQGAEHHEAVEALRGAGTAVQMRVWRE
row,Binder,pKd
1,"PAALPESTHM [SLC9A3, P48764]",3.57
2,"SKQFDKNAYV [CLDN10, P78369]",below the threshold

# Molecular target: NHERF4_1, Q86UT5-2
# Assay: holdup assay
# Design: key: below the threshold = too weak to quantify, mostly under pKd 3.1 to 4
# Conditions: plain residues with an end cap or a label only (N-terminal biotin on a linker: ado-ado)
# Chain of NHERF4_1, Q86UT5-2 (Q86UT5 other isoform, or with tags, fused parts or gaps): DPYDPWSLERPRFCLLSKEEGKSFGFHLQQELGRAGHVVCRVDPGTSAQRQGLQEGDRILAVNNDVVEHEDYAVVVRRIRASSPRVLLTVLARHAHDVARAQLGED
row,Binder,pKd
1,"PAALPESTHM [SLC9A3, P48764]",3.75
2,"SKQFDKNAYV [CLDN10, P78369]",below the threshold

# Molecular target: Inadl_4, Q8NI35
# Assay: holdup assay
# Design: key: below the threshold = too weak to quantify, mostly under pKd 3.1 to 4
# Conditions: plain residues with an end cap or a label only (N-terminal biotin on a linker: ado-ado)
# Chain of Inadl_4, Q8NI35 (Q8NI35 547-651): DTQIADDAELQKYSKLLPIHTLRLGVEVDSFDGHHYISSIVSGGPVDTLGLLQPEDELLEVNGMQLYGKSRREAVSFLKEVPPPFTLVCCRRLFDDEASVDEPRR
row,Binder,pKd
1,"PAALPESTHM [SLC9A3, P48764]",below the threshold
2,"SKQFDKNAYV [CLDN10, P78369]",below the threshold

# Molecular target: DLG4_1, P78352
# Assay: holdup assay
# Design: key: below the threshold = too weak to quantify, mostly under pKd 3.1 to 4
# Conditions: plain residues with an end cap or a label only (N-terminal biotin on a linker: ado-ado)
# Chain of DLG4_1, P78352 (P78352 62-152): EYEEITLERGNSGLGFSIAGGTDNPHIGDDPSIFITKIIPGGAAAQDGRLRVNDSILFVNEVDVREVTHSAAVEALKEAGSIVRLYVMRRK
row,Binder,pKd
1,"PAALPESTHM [SLC9A3, P48764]",below the threshold
2,"SKQFDKNAYV [CLDN10, P78369]",below the threshold

# Molecular target: SCRIB_3, Q14160
# Assay: holdup assay
# Design: key: below the threshold = too weak to quantify, mostly under pKd 3.1 to 4
# Conditions: plain residues with an end cap or a label only (N-terminal biotin on a linker: ado-ado)
# Chain of SCRIB_3, Q14160 (Q14160 999-1103): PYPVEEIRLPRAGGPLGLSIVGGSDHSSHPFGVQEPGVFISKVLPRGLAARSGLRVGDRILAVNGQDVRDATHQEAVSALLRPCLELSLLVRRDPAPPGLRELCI
row,Binder,pKd
1,"PAALPESTHM [SLC9A3, P48764]",3.55
2,"SKQFDKNAYV [CLDN10, P78369]",below the threshold

# Molecular target: TJP1_2, Q07157
# Assay: holdup assay
# Design: key: below the threshold = too weak to quantify, mostly under pKd 3.1 to 4
# Conditions: plain residues with an end cap or a label only (N-terminal biotin on a linker: ado-ado)
# Chain of TJP1_2, Q07157 (Q07157 181-274): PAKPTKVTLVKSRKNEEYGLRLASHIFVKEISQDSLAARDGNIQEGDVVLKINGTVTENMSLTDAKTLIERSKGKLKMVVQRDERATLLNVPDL
row,Binder,pKd
1,"PAALPESTHM [SLC9A3, P48764]",below the threshold
2,"SKQFDKNAYV [CLDN10, P78369]",3.61

# Molecular target: T1, FRMPD1, Q5SYB0
# T1 sequence (Q5SYB0 52-145, limits assumed, looked up): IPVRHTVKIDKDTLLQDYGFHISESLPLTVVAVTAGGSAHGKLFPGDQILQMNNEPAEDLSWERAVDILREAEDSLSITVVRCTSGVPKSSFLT
# Assay: holdup assay
# Design: key: below the threshold = too weak to quantify, mostly under pKd 3.1 to 4
# Conditions: plain residues with an end cap or a label only (N-terminal biotin on a linker: ado-ado)
row,Binder,pKd
1,"PAALPESTHM [SLC9A3, P48764]",below the threshold
2,"SKQFDKNAYV [CLDN10, P78369]",below the threshold

# Molecular target: PDLIM1, O00151
# Assay: holdup assay
# Design: key: below the threshold = too weak to quantify, mostly under pKd 3.1 to 4
# Conditions: plain residues with an end cap or a label only (N-terminal biotin on a linker: ado-ado)
# Chain of PDLIM1, O00151 (O00151 1-87): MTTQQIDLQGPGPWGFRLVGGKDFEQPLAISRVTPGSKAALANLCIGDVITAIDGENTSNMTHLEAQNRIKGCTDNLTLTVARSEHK
row,Binder,pKd
1,"PAALPESTHM [SLC9A3, P48764]",below the threshold
2,"SKQFDKNAYV [CLDN10, P78369]",below the threshold

# Molecular target: T2, DFNB31_2, Q9P202
# T2 sequence (Q9P202 274-371, limits assumed, looked up): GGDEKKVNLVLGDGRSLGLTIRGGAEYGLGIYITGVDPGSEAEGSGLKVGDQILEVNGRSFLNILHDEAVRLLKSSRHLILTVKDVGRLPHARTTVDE
# Assay: holdup assay
# Design: key: below the threshold = too weak to quantify, mostly under pKd 3.1 to 4
# Conditions: plain residues with an end cap or a label only (N-terminal biotin on a linker: ado-ado)
row,Binder,pKd
1,"PAALPESTHM [SLC9A3, P48764]",below the threshold
2,"SKQFDKNAYV [CLDN10, P78369]",below the threshold

# Molecular target: T3, LRRC7, Q96NW7
# T3 sequence (Q96NW7 1440-1537, limits assumed, looked up): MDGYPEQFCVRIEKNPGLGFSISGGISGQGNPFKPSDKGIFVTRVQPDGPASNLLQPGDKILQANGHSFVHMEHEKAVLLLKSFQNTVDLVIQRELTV
# Assay: holdup assay
# Design: key: below the threshold = too weak to quantify, mostly under pKd 3.1 to 4
# Conditions: plain residues with an end cap or a label only (N-terminal biotin on a linker: ado-ado)
row,Binder,pKd
1,"PAALPESTHM [SLC9A3, P48764]",below the threshold
2,"SKQFDKNAYV [CLDN10, P78369]",below the threshold

# Molecular target: Inadl_1, Q8NI35
# Assay: holdup assay
# Design: key: below the threshold = too weak to quantify, mostly under pKd 3.1 to 4
# Conditions: plain residues with an end cap or a label only (N-terminal biotin on a linker: ado-ado)
# Chain of Inadl_1, Q8NI35 (Q8NI35 113-229): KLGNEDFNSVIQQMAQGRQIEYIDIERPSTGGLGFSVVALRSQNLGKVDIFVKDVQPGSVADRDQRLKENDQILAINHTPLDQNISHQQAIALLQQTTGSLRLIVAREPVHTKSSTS
row,Binder,pKd
1,"PAALPESTHM [SLC9A3, P48764]",below the threshold
2,"SKQFDKNAYV [CLDN10, P78369]",below the threshold

# Molecular target: T4, MPP7, Q5T2T1
# T4 sequence (Q5T2T1 134-230, limits assumed, looked up): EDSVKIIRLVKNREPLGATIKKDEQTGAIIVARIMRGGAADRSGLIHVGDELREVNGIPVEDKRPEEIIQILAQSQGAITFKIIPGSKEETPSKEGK
# Assay: holdup assay
# Design: key: below the threshold = too weak to quantify, mostly under pKd 3.1 to 4
# Conditions: plain residues with an end cap or a label only (N-terminal biotin on a linker: ado-ado)
row,Binder,pKd
1,"PAALPESTHM [SLC9A3, P48764]",below the threshold
2,"SKQFDKNAYV [CLDN10, P78369]",below the threshold

# Molecular target: FRMPD2_2, Q68DX3
# Assay: holdup assay
# Design: key: below the threshold = too weak to quantify, mostly under pKd 3.1 to 4
# Conditions: plain residues with an end cap or a label only (N-terminal biotin on a linker: ado-ado)
# Chain of FRMPD2_2, Q68DX3 (Q68DX3 944-1038): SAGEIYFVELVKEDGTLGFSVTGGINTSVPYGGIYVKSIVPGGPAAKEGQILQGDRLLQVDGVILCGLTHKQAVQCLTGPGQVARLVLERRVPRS
row,Binder,pKd
1,"PAALPESTHM [SLC9A3, P48764]",below the threshold
2,"SKQFDKNAYV [CLDN10, P78369]",below the threshold

# Molecular target: T5, HTRA3, P83110
# T5 sequence (P83110 354-453, limits assumed, looked up): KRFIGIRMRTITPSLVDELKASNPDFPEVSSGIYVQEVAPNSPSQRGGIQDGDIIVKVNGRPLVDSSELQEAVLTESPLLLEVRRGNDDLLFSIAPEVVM
# Assay: holdup assay
# Design: key: below the threshold = too weak to quantify, mostly under pKd 3.1 to 4
# Conditions: plain residues with an end cap or a label only (N-terminal biotin on a linker: ado-ado)
row,Binder,pKd
1,"PAALPESTHM [SLC9A3, P48764]",below the threshold
2,"SKQFDKNAYV [CLDN10, P78369]",4.06

# Molecular target: GRIP2_6, Q9C0E4
# Assay: holdup assay
# Design: key: below the threshold = too weak to quantify, mostly under pKd 3.1 to 4
# Conditions: plain residues with an end cap or a label only (N-terminal biotin on a linker: ado-ado)
# Chain of GRIP2_6, Q9C0E4 (Q9C0E4 648-740): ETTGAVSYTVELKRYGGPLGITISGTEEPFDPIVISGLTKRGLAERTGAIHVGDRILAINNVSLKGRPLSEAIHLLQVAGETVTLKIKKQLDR
row,Binder,pKd
1,"PAALPESTHM [SLC9A3, P48764]",below the threshold
2,"SKQFDKNAYV [CLDN10, P78369]",below the threshold

# Molecular target: T6, SNTB1, Q13884
# T6 sequence (Q13884 107-205, limits assumed, looked up): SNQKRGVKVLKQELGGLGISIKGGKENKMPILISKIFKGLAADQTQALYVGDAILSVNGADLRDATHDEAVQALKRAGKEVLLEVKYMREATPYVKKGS
# Assay: holdup assay
# Design: key: below the threshold = too weak to quantify, mostly under pKd 3.1 to 4
# Conditions: plain residues with an end cap or a label only (N-terminal biotin on a linker: ado-ado)
row,Binder,pKd
1,"PAALPESTHM [SLC9A3, P48764]",below the threshold
2,"SKQFDKNAYV [CLDN10, P78369]",below the threshold

# Molecular target: DLG2_3, Q15700
# Assay: holdup assay
# Design: key: below the threshold = too weak to quantify, mostly under pKd 3.1 to 4
# Conditions: plain residues with an end cap or a label only (N-terminal biotin on a linker: ado-ado)
row,Binder,pKd
1,"PAALPESTHM [SLC9A3, P48764]",below the threshold
2,"SKQFDKNAYV [CLDN10, P78369]",below the threshold

# Molecular target: IL16_1, Q14005
# Assay: holdup assay
# Design: key: below the threshold = too weak to quantify, mostly under pKd 3.1 to 4
# Conditions: plain residues with an end cap or a label only (N-terminal biotin on a linker: ado-ado)
# Chain of IL16_1, Q14005 (Q14005 210-306): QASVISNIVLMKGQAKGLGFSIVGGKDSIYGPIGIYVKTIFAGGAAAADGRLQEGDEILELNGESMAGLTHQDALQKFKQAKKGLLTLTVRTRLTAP
row,Binder,pKd
1,"PAALPESTHM [SLC9A3, P48764]",below the threshold
2,"SKQFDKNAYV [CLDN10, P78369]",below the threshold

# Molecular target: T7, ARHGAP21, Q5T5U3
# T7 sequence (Q5T5U3 45-169, limits assumed, looked up): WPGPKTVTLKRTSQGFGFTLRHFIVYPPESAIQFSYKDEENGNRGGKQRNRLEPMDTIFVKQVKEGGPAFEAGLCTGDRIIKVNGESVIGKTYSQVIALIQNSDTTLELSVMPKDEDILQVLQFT
# Assay: holdup assay
# Design: key: below the threshold = too weak to quantify, mostly under pKd 3.1 to 4
# Conditions: plain residues with an end cap or a label only (N-terminal biotin on a linker: ado-ado)
row,Binder,pKd
1,"PAALPESTHM [SLC9A3, P48764]",4.05
2,"SKQFDKNAYV [CLDN10, P78369]",3.84

# Molecular target: T8, RHPN1, Q8TCX5
# T8 sequence (Q8TCX5 508-602, limits assumed, looked up): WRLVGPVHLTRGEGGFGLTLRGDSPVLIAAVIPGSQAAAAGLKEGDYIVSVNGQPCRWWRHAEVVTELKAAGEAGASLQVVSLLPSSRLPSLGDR
# Assay: holdup assay
# Design: key: below the threshold = too weak to quantify, mostly under pKd 3.1 to 4
# Conditions: plain residues with an end cap or a label only (N-terminal biotin on a linker: ado-ado)
row,Binder,pKd
1,"PAALPESTHM [SLC9A3, P48764]",below the threshold
2,"SKQFDKNAYV [CLDN10, P78369]",3.57

# Molecular target: T9, MPDZ_5, O75970
# T9 sequence (O75970 695-796, limits assumed, looked up): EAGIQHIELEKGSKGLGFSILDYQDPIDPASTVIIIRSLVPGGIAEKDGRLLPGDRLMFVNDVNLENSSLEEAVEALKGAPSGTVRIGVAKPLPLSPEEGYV
# Assay: holdup assay
# Design: key: below the threshold = too weak to quantify, mostly under pKd 3.1 to 4
# Conditions: plain residues with an end cap or a label only (N-terminal biotin on a linker: ado-ado)
row,Binder,pKd
1,"PAALPESTHM [SLC9A3, P48764]",below the threshold
2,"SKQFDKNAYV [CLDN10, P78369]",below the threshold

# Molecular target: GORASP2, Q9H8Y8
# Assay: holdup assay
# Design: key: below the threshold = too weak to quantify, mostly under pKd 3.1 to 4
# Conditions: plain residues with an end cap or a label only (N-terminal biotin on a linker: ado-ado)
row,Binder,pKd
1,"PAALPESTHM [SLC9A3, P48764]",below the threshold
2,"SKQFDKNAYV [CLDN10, P78369]",below the threshold

# Molecular target: NHERF4_4, Q86UT5
# Assay: holdup assay
# Design: key: below the threshold = too weak to quantify, mostly under pKd 3.1 to 4
# Conditions: plain residues with an end cap or a label only (N-terminal biotin on a linker: ado-ado)
# Chain of NHERF4_4, Q86UT5 (Q86UT5 464-550): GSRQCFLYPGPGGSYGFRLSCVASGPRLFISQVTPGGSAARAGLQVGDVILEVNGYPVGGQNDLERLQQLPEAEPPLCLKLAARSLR
row,Binder,pKd
1,"PAALPESTHM [SLC9A3, P48764]",below the threshold
2,"SKQFDKNAYV [CLDN10, P78369]",below the threshold

# Molecular target: T10, MPDZ_10, O75970
# T10 sequence (O75970 1624-1722, limits assumed, looked up): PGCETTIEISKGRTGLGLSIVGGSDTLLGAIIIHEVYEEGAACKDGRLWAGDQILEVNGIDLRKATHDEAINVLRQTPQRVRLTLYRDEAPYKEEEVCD
# Assay: holdup assay
# Design: key: below the threshold = too weak to quantify, mostly under pKd 3.1 to 4
# Conditions: plain residues with an end cap or a label only (N-terminal biotin on a linker: ado-ado)
row,Binder,pKd
1,"PAALPESTHM [SLC9A3, P48764]",below the threshold
2,"SKQFDKNAYV [CLDN10, P78369]",below the threshold

# Molecular target: Inadl_3, Q8NI35
# Assay: holdup assay
# Design: key: below the threshold = too weak to quantify, mostly under pKd 3.1 to 4
# Conditions: plain residues with an end cap or a label only (N-terminal biotin on a linker: ado-ado)
# Chain of Inadl_3, Q8NI35 (Q8NI35 359-469): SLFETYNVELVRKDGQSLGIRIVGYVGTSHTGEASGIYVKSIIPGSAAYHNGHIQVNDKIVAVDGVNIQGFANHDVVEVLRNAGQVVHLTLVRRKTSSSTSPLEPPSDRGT
row,Binder,pKd
1,"PAALPESTHM [SLC9A3, P48764]",below the threshold
2,"SKQFDKNAYV [CLDN10, P78369]",below the threshold

# Molecular target: T11, PDZRN3_1, Q9UPQ7
# T11 sequence (Q9UPQ7 244-349, limits assumed, looked up): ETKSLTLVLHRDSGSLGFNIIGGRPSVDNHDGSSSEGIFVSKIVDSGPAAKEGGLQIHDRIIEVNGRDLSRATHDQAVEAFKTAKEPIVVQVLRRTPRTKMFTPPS
# Assay: holdup assay
# Design: key: below the threshold = too weak to quantify, mostly under pKd 3.1 to 4
# Conditions: plain residues with an end cap or a label only (N-terminal biotin on a linker: ado-ado)
row,Binder,pKd
1,"PAALPESTHM [SLC9A3, P48764]",below the threshold
2,"SKQFDKNAYV [CLDN10, P78369]",below the threshold

# Molecular target: GORASP1, Q9BQQ3
# Assay: holdup assay
# Design: key: below the threshold = too weak to quantify, mostly under pKd 3.1 to 4
# Conditions: plain residues with an end cap or a label only (N-terminal biotin on a linker: ado-ado)
# Chain of GORASP1, Q9BQQ3 (Q9BQQ3 1-208): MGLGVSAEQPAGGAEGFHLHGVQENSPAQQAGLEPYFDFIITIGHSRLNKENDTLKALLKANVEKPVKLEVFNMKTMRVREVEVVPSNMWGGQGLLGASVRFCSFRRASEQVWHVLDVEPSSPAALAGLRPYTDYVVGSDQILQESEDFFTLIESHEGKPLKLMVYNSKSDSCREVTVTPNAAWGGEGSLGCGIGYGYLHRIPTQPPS
row,Binder,pKd
1,"PAALPESTHM [SLC9A3, P48764]",below the threshold
2,"SKQFDKNAYV [CLDN10, P78369]",below the threshold
